According to patent US20230265151A1, “GIP/GLP1 CO-AGONIST COMPOUNDS” (priority 2020, published 2023):

T1: human GIP receptor (human, UniProt P48546 22-466)
T1 sequence (looked up): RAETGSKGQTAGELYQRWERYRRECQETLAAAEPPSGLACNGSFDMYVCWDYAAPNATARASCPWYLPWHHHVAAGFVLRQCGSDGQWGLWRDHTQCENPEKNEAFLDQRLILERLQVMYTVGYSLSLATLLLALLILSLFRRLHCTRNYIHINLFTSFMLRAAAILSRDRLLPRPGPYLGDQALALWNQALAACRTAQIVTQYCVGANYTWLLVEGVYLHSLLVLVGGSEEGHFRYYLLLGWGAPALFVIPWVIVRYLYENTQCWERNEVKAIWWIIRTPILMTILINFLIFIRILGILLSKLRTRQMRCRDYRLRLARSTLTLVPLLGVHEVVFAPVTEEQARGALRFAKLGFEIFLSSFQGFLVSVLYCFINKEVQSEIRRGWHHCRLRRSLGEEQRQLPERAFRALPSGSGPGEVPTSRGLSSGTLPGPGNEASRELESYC


Assays:
Experiment in all cases: cell-based or functional assay
human GIP receptor = molecular target: T1, human GIP receptor
human GLP-1 receptor = human GLP-1 receptor (human, UniProt P43220 24-463)
human glucagon receptor = human glucagon receptor (human, UniProt P47871 26-477)
Sequence of human glucagon receptor (P47871 26-477): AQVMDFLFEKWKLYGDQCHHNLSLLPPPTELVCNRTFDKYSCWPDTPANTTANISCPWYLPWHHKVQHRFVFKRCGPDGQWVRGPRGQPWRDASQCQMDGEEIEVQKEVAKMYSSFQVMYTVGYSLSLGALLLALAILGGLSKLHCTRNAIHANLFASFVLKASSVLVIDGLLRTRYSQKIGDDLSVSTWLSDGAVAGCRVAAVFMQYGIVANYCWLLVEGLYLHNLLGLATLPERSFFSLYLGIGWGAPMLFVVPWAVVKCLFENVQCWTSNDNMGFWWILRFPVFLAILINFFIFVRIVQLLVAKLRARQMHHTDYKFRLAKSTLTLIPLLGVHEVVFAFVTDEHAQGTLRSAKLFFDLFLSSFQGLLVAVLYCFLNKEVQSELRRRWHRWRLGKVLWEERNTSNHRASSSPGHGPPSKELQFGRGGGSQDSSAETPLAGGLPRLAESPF

Binder	cAMP EC50 (1.0% HSA) (human GIP receptor) [nM]	cAMP EC50 (1.0% HSA) (human GLP-1 receptor) [nM]	cAMP EC50 (1.0% HSA) (human glucagon receptor) [nM]	cAMP Emax (1.0% HSA) (human GLP-1 receptor) [%]	cAMP Emax (1.0% HSA) (human GIP receptor) [%]
YXEGTXTSDXXIXLDXQAQXXFIKXLIKGGPSSGAPPPS (Y-Aib-EGT-αMeF(2F)-TSD-4Pal-Aib-I-αMeL-LD-Orn-QAQ-Aib-Orn-FIK((γ-Glu)-(2-[2-(2-Amino-ethoxy)-ethoxy]-acetyl)2-(γ-Glu)-CO-(CH2)12-CO2H)-αMeY-LIK((γ-Glu)-(2-[2-(2-Amino-ethoxy)-ethoxy]-acetyl)2-(γ-Glu)-CO-(CH2)12-CO2H)GGPSSGAPPPS-NH2) [Example 482]	0.89	4.85	> 9950		
YXEGTXTSDXXIXLDXQAQXXFIKXLIKGGPSSGAPPPS (Y-Aib-EGT-αMeF(2F)-TSD-4Pal-Aib-I-αMeL-LD-Orn-QAQ-Aib-Orn-FIK((2-[2-(2-Amino-ethoxy)-ethoxy]-acetyl)-Trx-(γ-Glu)-(10-(4-carboxyphenoxy)decanoyl))-αMeY-LIK(((2-[2-(2-Amino-ethoxy)-ethoxy]-acetyl)-Trx-(γ-Glu)-(10-(4-carboxyphenoxy)decanoyl))GGPSSGAPPPS-NH2)) [Example 473]	0.979	7.07	> 9950		
YXEGTXTSDXXIXLDXQAQXXFIKXLIKGGPSSGAPPPS (Y-Aib-EGT-αMeF(2F)-TSD-4Pal-Aib-I-αMeL-LD-Orn-QAQ-Aib-Orn-FIK((γ-Glu)-(2-[2-(2-Amino-ethoxy)-ethoxy]-acetyl)2-(γ-Glu)-(10-(4-carboxyphenoxy)decanoyl))-αMeY-LIK((γ-Glu)-(2-[2-(2-Amino-ethoxy)-ethoxy]-acetyl)2-(γ-Glu)-(10-(4-carboxyphenoxy)decanoyl))GGPSSGAPPPS-NH2) [Example 483]	0.297	3.33	> 9950		
YXEGTXTSDXXIXLDXQAQXXFIKXLIKGGPSSGAPPPS (Y-Aib-EGT-αMeF(2F)-TSD-4Pal-Aib-I-αMeL-LD-Orn-QAQ-Aib-Orn-FIK(PEG5-(γ-Glu)-(10-(4-carboxyphenoxy)decanoyl))-αMeY-LIK(PEG5-(γ-Glu)-(10-(4-carboxyphenoxy)decanoyl))GGPSSGAPPPS-NH2) [Example 469]	0.203	2.33	> 9950		
YXEGTXTSDXXIXLDXQAQXXFIKXLIKGGPSSGAPPPS (Y-Aib-EGT-αMeF(2F)-TSD-4Pal-Aib-I-αMeL-LD-Orn-QAQ-Aib-Orn-FIK((2-[2-(2-Amino-ethoxy)-ethoxy]-acetyl)2--Trx-(γ-Glu)-(10-(4-carboxyphenoxy)decanoyl))-αMeY-LIK(((2-[2-(2-Amino-ethoxy)-ethoxy]-acetyl)2--Trx-(γ-Glu)-(10-(4-carboxyphenoxy)decanoyl))GGPSSGAPPPS-NH2)) [Example 471]	0.568	4.36	> 9950		
YXEGTXTSDYXIXLDXIAQXXFIKXLIKGGPSSGAPPPS (Y-Aib-EGT-αMeF(2F)-TSDY-Aib-I-αMeL-LD-Orn-IAQ-Aib-Orn-FIK((2-[2-(2-Amino-ethoxy)-ethoxy]-acetyl)3-(γ-Glu)--(10-(4-carboxyphenoxy)decanoyl))-αMeY-LIK((2-[2-(2-Amino-ethoxy)-ethoxy]-acetyl)3-(γ-Glu)--(10-(4-carboxyphenoxy)decanoyl))GGPSSGAPPPS-NH2) [Example 481]	0.467	6.16	> 9950	112	
YXEGTXTSDYXIXLDXQAQXXFIKXLIKGGPSSGAPPPS (Y-Aib-EGT-αMeF(2F)-TSDY-Aib-I-αMeL-LD-Orn-QAQ-Aib-Orn-FIK((2-[2-(2-Amino-ethoxy)-ethoxy]-acetyl)3-(γ-Glu)-CO-(CH2)12-CO2H)-αMeY-LIK((2-[2-(2-Amino-ethoxy)-ethoxy]-acetyl)3-(γ-Glu)-CO-(CH2)12-CO2H)GGPSSGAPPPS-NH2) [Example 479]	0.196	2.55	> 9950		89.5
YXEGTXTSDXXIXLDXQAQXXFIKXLIKGGPSSGAPPPS (Y-Aib-EGT-αMeF(2F)-TSD-4Pal-Aib-I-αMeL-LD-Orn-QAQ-Aib-Orn-FIK(PEG6-(γ-Glu)-(10-(4-carboxyphenoxy)decanoyl))-αMeY-LIK(PEG6-(γ-Glu)-(10-(4-carboxyphenoxy)decanoyl))GGPSSGAPPPS-NH2) [Example 468]	0.222	1.84	> 10100		
YXEGTXTSDXXIXLDXQAQXXFIKXLIKGGPSSGAPPPS (Y-Aib-EGT-αMeF(2F)-TSD-4Pal-Aib-I-αMeL-LD-Orn-QAQ-Aib-Orn-FIK((2-[2-(2-Amino-ethoxy)-ethoxy]-acetyl)2--Trx-(γ-Glu)-CO-(CH2)12-CO2H)-αMeY-LIK(((2-[2-(2-Amino-ethoxy)-ethoxy]-acetyl)2--Trx(γ-Glu)-CO-(CH2)12-CO2H)GGPSSGAPPPS-NH2)) [Example 470]	0.719	4.54	> 9950		
YXEGTXTSDXXIXLDXQAQXXFIKXLIKGGPSSGAPPPS (Y-Aib-EGT-αMeF(2F)-TSD-4Pal-Aib-I-αMeL-LD-Orn-QAQ-Aib-Orn-FIK((2-[2-(2-Amino-ethoxy)-ethoxy]-acetyl)2-(γ-Glu)2--(10-(4-carboxyphenoxy)decanoyl))-αMeY-LIK((2-[2-(2-Amino-ethoxy)-ethoxy]-acetyl)2-(γ-Glu)2--(10-(4-carboxyphenoxy)decanoyl))GGPSSGAPPPS-NH2) [Example 475]	0.211	1.44	> 9950		
YXEGTXTSDXXIXLDXQAQXXFIKXLIKGGPSSGAPPPS (Y-Aib-EGT-αMeF(2F)-TSD-4Pal-Aib-I-αMeL-LD-Orn-QAQ-Aib-4Pal-FIK((2-[2-(2-Amino-ethoxy)-ethoxy]-acetyl)2-(γ-Glu)-(10-(4-carboxyphenoxy)decanoyl))-αMeY-LIK((2-[2-(2-Amino-ethoxy)-ethoxy]-acetyl)2-(γ-Glu)-(10-(4-carboxyphenoxy)decanoyl))GGPSSGAPPPS-NH2) [Example 493]	0.591	7.24	> 9950		
YXEGTXTSDXXIXLDXQAQXXFIKXLIKGGPSSGAPPPS (Y-Aib-EGT-αMeF(2F)-TSD-4Pal-Aib-I-αMeL-LD-Orn-QAQ-Aib-Orn-FIK((2-[2-(2-Amino-ethoxy)-ethoxy]-acetyl)-(γ-Glu)-CO-(CH2)12-CO2H)-αMeY-LIK((2-[2-(2-Amino-ethoxy)-ethoxy]-acetyl)-(γ-Glu)-CO-(CH2)12-CO2H)GGPSSGAPPPS-NH2) [Example 459]	0.323	4.87	> 9950		
YXEGTXTSDXXIXLDXQAQXXFIKXLIKGGPSSGAPPPS (Y-Aib-EGT-αMeF(2F)-TSD-4Pal-Aib-I-αMeL-LD-Orn-QAQ-Aib-Orn-FIK((2-[2-(2-Amino-ethoxy)-ethoxy]-acetyl)-(γ-Glu)-(2-[2-(2-Amino-ethoxy)-ethoxy]-acetyl)-(γ-Glu)-(10-(4-carboxyphenoxy)decanoyl))-αMeY-LIK((2-[2-(2-Amino-ethoxy)-ethoxy]-acetyl)-(γ-Glu)-(2-[2-(2-Amino-ethoxy)-ethoxy]-acetyl)-(γ-Glu)-(10-(4-carboxyphenoxy)decanoyl))GGPSSGAPPPS-NH2) [Example 485]	0.536	3.9	> 9950		
YXEGTXTSDXXIXLDXQAQXXFIKXLIKGGPSSGAPPPS (Y-Aib-EGT-αMeF(2F)-TSD-4Pal-Aib-I-αMeL-LD-Orn-QAQ-Aib-Orn-FIK((2-[2-(2-Amino-ethoxy)-ethoxy]-acetyl)-(γ-Glu)-(10-(4-carboxyphenoxy)decanoyl))-αMeY-LIK((2-[2-(2-Amino-ethoxy)-ethoxy]-acetyl)-(γ-Glu)-(10-(4-carboxyphenoxy)decanoyl))GGPSSGAPPPS-NH2) [Example 463]	0.35	4.09	> 9950		
YXEGTXTSDXXIXLDXQAQXXFIKXLIKGGPSSGAPPPS (Y-Aib-EGT-αMeF(2F)-TSD-4Pal-Aib-I-αMeL-LD-Orn-QAQ-Aib-Orn-FIK((2-[2-(2-Amino-ethoxy)-ethoxy]-acetyl)3-(γ-Glu)-CO-(CH2)12-CO2H)-αMeY-LIK((2-[2-(2-Amino-ethoxy)-ethoxy]-acetyl)3-(γ-Glu)-CO-(CH2)12-CO2H)GGPSSGAPPPS-NH2) [Example 476]	0.154	1.5	> 9950		
YXEGTXTSDXXIXLDXQAQXXFIKXLIKGGPSSGAPPPS (Y-Aib-EGT-αMeF(2F)-TSD-4Pal-Aib-I-αMeL-LD-Orn-QAQ-Aib-Orn-FIK((2-[2-(2-Amino-ethoxy)-ethoxy]-acetyl)3-(γ-Glu)--(10-(4-carboxyphenoxy)decanoyl))-αMeY-LIK((2-[2-(2-Amino-ethoxy)-ethoxy]-acetyl)3-(γ-Glu)--(10-(4-carboxyphenoxy)decanoyl))GGPSSGAPPPS-NH2) [Example 477]	0.163	1.56	> 9950		
YXEGTXTSDXXIXLDXQAQXXFIKXLIKGGPSSGAPPPS (Y-Aib-EGT-αMeF(2F)-TSD-4Pal-Aib-I-αMeL-LD-Orn-QAQ-Aib-Orn-FIK((2-[2-(2-Amino-ethoxy)-ethoxy]-acetyl)-Trx-(γ-Glu)-CO-(CH2)12-CO2H)-αMeY-LIK(((2-[2-(2-Amino-ethoxy)-ethoxy]-acetyl)-Trx-(γ-Glu)-CO-(CH2)12-CO2H)GGPSSGAPPPS-NH2)) [Example 472]	0.663	7.41	> 9950		76.3
YXEGTXTSDXXIXLDXQAQXXFIKXLIKGGPSSGAPPPS (Y-Aib-EGT-αMeF(2F)-TSD-4Pal-Aib-I-αMeL-LD-Orn-QAQ-Aib-Orn-FIK(PEG4-(γ-Glu)-CO-(CH2)12-CO2H)-αMeY-LIK(PEG4-(γ-Glu)-CO-(CH2)12-CO2H)GGPSSGAPPPS-NH2) [Example 457]	0.334	4.69	> 9950		
